Measured values as given in publication PMC5308735, “Inhibition of insulin-like growth factor II (IGF-II)-dependent cell growth by multidentate pentamannosyl 6-phosphate-based ligands targeting the mannose 6-phosphate/IGF-II receptor” (Oncotarget, 2016).
Values belong to the molecule of their own block, whether it stands above or below them.

Tests used:
[1] = target: recombinant human insulin-like growth factor II (IGF-II); experiment: direct radioligand binding (125I-IGF-II) to FLAG-tagged receptor immunoprecipitated on M2 α-FLAG affinity resin; settings: equimolar amounts of expressed soluble receptors from cell lysates; parent: est. 5800; read off a plot
[2] = target: soluble bovine M6P/IGF2R (mannose 6-phosphate/insulin-like growth factor II receptor) (bovine) (UniProt P08169); experiment: radioligand binding; competitive displacement of 1.5 nM ^125I-PMP-BSA tracer from soluble bovine M6P/IGF2R coupled to Sepharose 4B; test ligands 1 pM to 10 μM; 50 mM HEPES pH 7.4, 0.15 M NaCl, 0.05% Triton X-100; 16 h at 4°C
[3] = target: soluble bovine M6P/IGF2R (mannose 6-phosphate/insulin-like growth factor II receptor) (bovine) (UniProt P08169)
[4] = target: T1, soluble bovine M6P/IGF2R (mannose 6-phosphate/insulin-like growth factor II receptor) (bovine, UniProt P08169 45-2313); experiment: radioligand binding; competitive displacement of 1.5 nM ^125I-PMP-BSA tracer from soluble bovine M6P/IGF2R coupled to Sepharose 4B; test ligands 1 pM to 10 μM; 50 mM HEPES pH 7.4, 0.15 M NaCl, 0.05% Triton X-100; 16 h at 4°C; settings: both partners purified
T1 construct: soluble form of the bovine mannose 6-phosphate/IGF-II receptor as it circulates in fetal bovine serum; also called sIGF2R; soluble M6P/IGF2R; source: purified from fetal bovine serum; coupled to Sepharose 4B for the displacement assay

[5] = target: T2, wild-type, full-length ectodomain M6P/IGF2R mini-receptor with C-terminal FLAG (1-15F) (human, UniProt P11717 41-2304); experiment: radioligand binding; competitive displacement of 2 nM ^125I-PMP-BSA from FLAG-tagged soluble receptors immunoprecipitated on M2 α-FLAG resin and washed; PMP-ligands 1 pM to 10 μM; assay buffer, 4 h at 4°C; settings: both partners purified
T2 construct: human M6P/IGF2R, all 15 ectodomain repeats; also called wild-type M6P/IGF2R construct; source: HEK 293, transiently transfected; cell lysates and conditioned media, immunoadsorbed to M2 α-FLAG resin; not shown: FLAG, C-terminal, kept

[6] = target: T3, full-length ectodomain M6P/IGF2R mini-receptor with R1325A (repeat 9), C-terminal FLAG (human, UniProt P11717 41-2304, R1325A); experiment: as above; settings: both partners purified
T3 construct: human M6P/IGF2R, all 15 ectodomain repeats, arginine-to-alanine substitution in the 9th domain; also called R1325AF; source: HEK 293, transiently transfected; cell lysates and conditioned media, immunoadsorbed to M2 α-FLAG resin; not shown: FLAG, C-terminal, kept

[7] = target: T2, wild-type, full-length ectodomain …; experiment: radioligand binding; direct binding of ^125I-PMP-BSA or ^125I-hGUS to equimolar FLAG-tagged soluble receptors immunoadsorbed from HEK 293 lysates/conditioned media to M2 α-FLAG resin and washed; settings: both partners purified
[8] = target: T4, full-length ectodomain M6P/IGF2R mini-receptor with R426A (repeat 3), C-terminal FLAG (human, UniProt P11717 41-2304, R426A); experiment: as above; settings: both partners purified
T4 construct: human M6P/IGF2R, all 15 ectodomain repeats, arginine-to-alanine substitution in the 3rd domain; also called R426A mutant construct; source: HEK 293, transiently transfected; cell lysates and conditioned media, immunoadsorbed to M2 α-FLAG resin; not shown: FLAG, C-terminal, kept

[9] = target: T3, full-length ectodomain M6P/IGF2R …; experiment: as above; settings: both partners purified

soluble bovine M6P/IGF2R (mannose 6-phosphate/insulin-like growth factor II receptor) (bovine), sequence (P08169 45-2313): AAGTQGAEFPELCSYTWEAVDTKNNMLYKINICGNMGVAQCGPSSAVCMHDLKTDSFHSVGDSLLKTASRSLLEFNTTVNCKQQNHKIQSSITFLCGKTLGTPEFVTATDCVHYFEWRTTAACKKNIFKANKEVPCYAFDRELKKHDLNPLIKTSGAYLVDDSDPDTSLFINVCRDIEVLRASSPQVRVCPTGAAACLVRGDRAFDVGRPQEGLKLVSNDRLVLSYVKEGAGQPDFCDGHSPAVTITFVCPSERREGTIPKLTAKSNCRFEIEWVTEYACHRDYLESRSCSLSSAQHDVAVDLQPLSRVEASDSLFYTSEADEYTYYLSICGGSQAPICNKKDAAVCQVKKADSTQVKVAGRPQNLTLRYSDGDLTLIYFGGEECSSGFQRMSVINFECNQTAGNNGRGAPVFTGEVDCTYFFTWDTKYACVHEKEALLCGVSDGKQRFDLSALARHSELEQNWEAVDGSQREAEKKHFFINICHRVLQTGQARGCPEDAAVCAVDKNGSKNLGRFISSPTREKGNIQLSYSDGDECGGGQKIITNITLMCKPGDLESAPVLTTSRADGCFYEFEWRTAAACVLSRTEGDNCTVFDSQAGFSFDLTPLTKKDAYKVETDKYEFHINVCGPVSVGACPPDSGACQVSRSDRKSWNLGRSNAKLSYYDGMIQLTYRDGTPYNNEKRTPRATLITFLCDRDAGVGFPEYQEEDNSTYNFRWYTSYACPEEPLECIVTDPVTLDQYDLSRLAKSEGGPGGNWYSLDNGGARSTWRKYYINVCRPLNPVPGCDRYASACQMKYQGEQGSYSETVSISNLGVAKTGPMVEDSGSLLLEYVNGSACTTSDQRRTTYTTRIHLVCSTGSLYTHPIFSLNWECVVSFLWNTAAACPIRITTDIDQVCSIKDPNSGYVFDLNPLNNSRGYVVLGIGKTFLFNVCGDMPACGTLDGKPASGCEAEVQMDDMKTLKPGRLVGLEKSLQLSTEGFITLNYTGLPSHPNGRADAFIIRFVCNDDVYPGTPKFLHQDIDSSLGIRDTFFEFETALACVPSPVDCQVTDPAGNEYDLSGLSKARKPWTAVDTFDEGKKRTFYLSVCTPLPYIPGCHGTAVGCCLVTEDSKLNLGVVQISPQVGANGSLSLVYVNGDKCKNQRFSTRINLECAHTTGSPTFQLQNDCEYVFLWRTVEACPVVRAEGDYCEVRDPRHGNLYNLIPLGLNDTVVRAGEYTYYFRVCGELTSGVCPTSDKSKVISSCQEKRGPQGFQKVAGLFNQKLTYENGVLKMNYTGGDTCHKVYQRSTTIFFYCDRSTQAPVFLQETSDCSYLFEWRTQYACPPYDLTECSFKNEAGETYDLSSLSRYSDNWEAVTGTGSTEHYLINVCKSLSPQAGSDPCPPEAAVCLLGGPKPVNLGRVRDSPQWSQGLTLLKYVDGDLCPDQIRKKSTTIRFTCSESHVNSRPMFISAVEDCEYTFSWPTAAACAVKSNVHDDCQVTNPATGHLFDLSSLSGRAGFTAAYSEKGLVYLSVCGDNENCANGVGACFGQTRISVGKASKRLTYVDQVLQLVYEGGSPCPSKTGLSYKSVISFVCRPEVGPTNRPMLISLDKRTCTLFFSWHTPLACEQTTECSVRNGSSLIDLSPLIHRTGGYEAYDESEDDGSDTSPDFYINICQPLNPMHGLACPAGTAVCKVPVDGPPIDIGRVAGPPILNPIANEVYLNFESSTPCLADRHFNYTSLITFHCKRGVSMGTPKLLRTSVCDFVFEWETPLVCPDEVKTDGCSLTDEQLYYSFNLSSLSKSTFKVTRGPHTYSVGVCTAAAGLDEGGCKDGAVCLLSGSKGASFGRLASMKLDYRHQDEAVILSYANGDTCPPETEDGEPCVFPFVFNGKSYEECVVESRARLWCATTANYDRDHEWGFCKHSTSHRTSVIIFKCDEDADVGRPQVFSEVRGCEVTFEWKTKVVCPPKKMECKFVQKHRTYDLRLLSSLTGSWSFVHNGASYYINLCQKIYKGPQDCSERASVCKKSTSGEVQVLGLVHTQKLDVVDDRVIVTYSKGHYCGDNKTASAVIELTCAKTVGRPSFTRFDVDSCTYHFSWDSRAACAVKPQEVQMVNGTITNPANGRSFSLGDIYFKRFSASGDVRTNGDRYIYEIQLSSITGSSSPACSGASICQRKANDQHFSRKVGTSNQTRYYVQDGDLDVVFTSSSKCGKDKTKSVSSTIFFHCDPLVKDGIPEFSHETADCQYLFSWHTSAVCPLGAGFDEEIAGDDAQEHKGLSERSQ
T1 sequence (P08169 45-2313): as above

IC50 [2]: 120 nM | RBA (relative binding affinity, normalized to free M6P) [2]: 600
Molecule: pentamannosyl 6-phosphate-derivatized lysyl-tyrosyl-lysine (PMP-KYK) (peptide)

IC50 [2]: 13 nM | RBA (relative binding affinity, normalized to free M6P) [2]: 5540
Molecule: pentamannosyl 6-phosphate-derivatized bovine insulin (PMP-INS) (ligand)

response [1]: 5300 CPM
Molecule: wild-type, full-length ectodomain M6P/IGF2R mini-receptor with C-terminal FLAG (1-15F) (from UniProt P11717) R426A

Continued, molecule first:

Molecule: wild-type, full-length ectodomain M6P/IGF2R mini-receptor with C-terminal FLAG (1-15F) (from UniProt P11717) R1325A
response [1]: 5000 CPM

Molecule: pentamannosyl 6-phosphate-derivatized seryl-tyrosyl-lysine (PMP-SYK) (peptide)
suppression of growth (MTT, 2 days) of mouse L cells over-expressing the M6P/IGF2R, PMP-SYK 1 pM to 1 μM; blocked by saturating M6P [3]: 50% | IC50 [2]: 52 nM | RBA (relative binding affinity, normalized to free M6P) [2]: 1380

Molecule: wild-type, full-length ectodomain M6P/IGF2R mini-receptor with C-terminal FLAG (1-15F) (from UniProt P11717) R426A; R1325A
response [1]: 5900 CPM

B1: pentamannosyl 6-phosphate-derivatized chicken egg ovalbumin (PMP-OVA) (ligand, UniProt P01012 1-386, looked up)
chain: MGSIGAASMEFCFDVFKELKVHHANENIFYCPIAIMSALAMVYLGAKDSTRTQINKVVRFDKLPGFGDSIEAQCGTSVNVHSSLRDILNQITKPNDVYSFSLASRLYAEERYPILPEYLQCVKELYRGGLEPINFQTAADQARELINSWVESQTNGIIRNVLQPSSVDSQTAMVLVNAIVFKGLWEKAFKDEDTQAMPFRVTEQESKPVQMMYQIGLFRVASMASEKMKILELPFASGTMSMLVLLPDEVSGLEQLESIINFEKLTEWTSSNVMEERKIKVYLPRMKMEEKYNLTSVLMAMGITDVFSSSANLSGISSAESLKISQAVHAAHAEINEAGREVVGSAEAGVDAASVSEEFRADHPFLFCIKHIATNAVLFFGRCVSP
modifications: pentamannosyl 6-phosphate (PMP) coupled by reductive amination, approximately 13 PMP groups
notes: chicken egg white albumin (ovalbumin); source: bought: Sigma (A-5503), conjugated to PMP with NaCNBH3, dialysed and gel filtered (Sephadex G-50)
IC50 [4]: 21 nM | binding result [5]: binds | binding result [6]: binds

B2: human β-glucuronidase (hGUS) (enzyme, UniProt P08236 23-651, looked up)
chain: LQGGMLYPQESPSRECKELDGLWSFRADFSDNRRRGFEEQWYRRPLWESGPTVDMPVPSSFNDISQDWRLRHFVGWVWYEREVILPERWTQDLRTRVVLRIGSAHSYAIVWVNGVDTLEHEGGYLPFEADISNLVQVGPLPSRLRITIAINNTLTPTTLPPGTIQYLTDTSKYPKGYFVQNTYFDFFNYAGLQRSVLLYTTPTTYIDDITVTTSVEQDSGLVNYQISVKGSNLFKLEVRLLDAENKVVANGTGTQGQLKVPGVSLWWPYLMHERPAYLYSLEVQLTAQTSLGPVSDFYTLPVGIRTVAVTKSQFLINGKPFYFHGVNKHEDADIRGKGFDWPLLVKDFNLLRWLGANAFRTSHYPYAEEVMQMCDRYGIVVIDECPGVGLALPQFFNNVSLHHHMQVMEEVVRRDKNHPAVVMWSVANEPASHLESAGYYLKMVIAHTKSLDPSRPVTFVSNSNYAADKGAPYVDVICLNSYYSWYHDYGHLELIQLQLATQFENWYKKYQKPIIQSEYGAETIAGFHQDPPLMFTEEYQKSLLEQYHLGLDQKRRKYVVGELIWNFADFMTEQSPTRVLGNKKGIFTRQRQPKSAAFLLRERYWKIANETRYPHSVAKSQCLENSLFT
modifications: multiple high-mannose N-linked oligosaccharides capped with M6P; ^125I-labelled (IODOGEN) where used as tracer
notes: human β-glucuronidase, a homotetrameric lysosomal enzyme; source: purified human β-glucuronidase provided by Dr. William S. Sly
binding result [7]: binds | binding result [8]: binds | binding result [9]: binds
